Data published in the DeepSol protein solubility set.

test: soluble on expression in E. coli; label from the status in PepcDB or PDB records

| Sequence | soluble on expression in E. coli |
| --- | --- |
| MSLHYPFVTNDDIEWMLSICVEWRLPEIAKEIYTTLGNQMLSAHNIIESIANFSRAGKYELVKSYSWLLFEASCMEGQKLDDPVLNAIVSKNSPAEDDVIIPQDILDCVVTNSMRQTLAPYAVLSQFYELRDREDWGQALRLLLLLIEFPYLPKHYLVLLVAKFLYPIFLLDDKKLMDEDSVATVIEVIETKWDDADEKSSNLYETIIEADKSLPSSMATLLKNLRKKLNFKLCQAFMEGHHHHHH | not soluble |
| SSYCKQEGKDCIIFVTKEDHEAPSNAELVEDDPNDPYEDHGLILPNGDINWNCPCLGGMASGPCGQQFKDAFSCFHYSKEEIKGSDCVENFRGMQECMQKYPELYPQEDDNDSAPSGGANTAPTDSLPASSTDSTAAAATENPATS | soluble |
| MYFEGYGYRGSTFEQTYRCYPASFIDKPQLETGDKIIMPPSALDRLASLHIEYPMLFEVHNAAAERTSHCGVLEFIAEEGMIYMPYWMMQNLLLTEGDMVFIKNANLPKGTYVKLQPHTTDFLDISNPKAILEKTLRNYSCLTTGDSIMVAYNNKKYYIDIVETKPSNAISIIETDCEVDFAPPLDYKEPERQKAAVPPSTAPTAEEAAEEEPKFIPFTGPGRRLDGKAPKDKDVSASSPAKRQANATNSVQPSTASTSQSSSSRKTTEKLVFGPGGNRTSKETEKVPEKEPKEDPKKDEPKFSAFTGRKYSLKG | soluble |
| TSMIIHRDLEVAIRQDNIIPYFQPIVNAKSGEIIGFEALARWPHPTLGIISPLIFIPLAEQGKLIVELGESILNQSCDFIGKLNTKRHSQGLPPLTVHVNLSAQHFYHSRLISFLQSMIEEHNISAGHLVLEITESMLMGGETESIHCINEIKQLGVQLALDDFGTGYASFSSVCNFPLDIVKLDKSYVDEIETNDRAKTLVRNIANMSQELGLTIVAEGVETASQVRKLKVWNIDELQGFYFYKPMTREDAFAQFSGLPHC | not soluble |
| MSLQGKFQPTWESLANYKIPEWFRNVKFGIWAHWGPQCVEGSGDWMARSLYMENSPEYRHHIANYGHPSEFGFKDIIPLWKAEKWDPDKLVAFYKKIGAQYFFALGNHHDNMDLWDSKYQPWNSVNMGPKKDILKGWERAARKHGLYFGVSLHADHAWSWYETSQRHDTQGPKKGIPYDGKLTKADGKGKWWEGYDPQDLYAQNHPLSQDSWDNGTIHRQWAWGNGVCLPTQEYCTNFYNRTLDVINRYNPDLLYFDVTVAPFYPISDAGLKIAAHFYNHNMSMQKGKLNAVMFGKILDANQRKALVWDVERGAPNKIIDEPWQSCSCLGGWHYNTSIYNNNQYKSAADVVKLLVDIVSKNGNLLLSVPLRADGTFDEKEEKILNEFGNWMNINKEAIYQTRPWKIFGEGPIADKDVQLNAQGFNEWAYSKADAKEIRFTQTDKNLYATVLGWPEDGKILIRSLAEGNGLYPTKIGRVELLGYGKVSFTRTDKGLVVDIPAKSLKNIAPVLKIRKEGHHHHHH | soluble |
| MDAKVYVGGLPSDATSQELEEIFDRFGRIRKVWVARRPPGFAFVEYDDVRDAEDAVRALDGSRICGVRARVELSTGQRRGGGGRGGGFGGRGGGGRDRSPYRGDRGRSRSRSRDRGRDRSRDRSRDRSRDRSRDRSRERSRERERTRSRSRSPQERDRSHSKSRSRSRSRSRSRSASPH | soluble |
| MSVLNPCMTCGACCAYFRVSFYWAEGDDASGRVPASLTEPVTPFLRCMAGTNQKQPHCKALIGTPGENVSCAIYENRPSTCREFSISGEGGEVNEACNRARARYGLPPLYKDMLFHTTADAATVELSRVQLPANLEHHHHHH | not soluble |
| HHHHHHSSGLVPRGSHMTAQTVTGAVAAAQLGATLPHEHVIFGYPGYAGDVTLGPFDHAAALASCTETARALLARGIQTVVDATPNGCGRNPAFLREVSEATGLQILCATGFYYEGGGATTYFKFRASLGDAESEIYEMMRTEVTEGIAGTGIRAGVIKLASSRDAITPYEQLFFRAAARVQRETGVPIITHTQEGQQGPQQAELLTSLGADPARIMIGHMDGNTDPAYHRETLRHGVSIAFDRIGLQGMVGTPTDAERLSVLTTLLGEGYADRLLLSHDSIWHWLGRPPAIPEAALPAVKDWHPLHISDDILPDLRRRGITEEQVGQMTVGNPARLFG | soluble |
| MTTTDVSWPKSLWHAVTGPGPGLPALHGAEEADVVVVGGGFSGLSTALHLREAGVDVAVVEAAEPGWGASGRNNGQVIPTLSRPDPEDIVAKHGAAGERLVGLIRDSASILFDVAKRHGVDAEQEQNGWVQPVHSPGRIKIAERRFRQWSKFGAPVELLSRDQVRDMLGSEAWFGGFWNRTGGHVNPLALARGLARAVLAQGGRIFARSPAVSIERRGDRWIVKTAQGEISGRALVVASNAYTGEFSKTLAPAIASEVMPVRSWQMATQPLSDNVRKTIIPGRQAMSDTHGELIFGRFDARNRFVTGGAIIRPFNQIATLKARVGKRLQRLWPQIGEVRFDYVWNGFIGMTTDYLPHIHRLGPNAYGWTGCNGRGVALSVALGRELSKAVRGVTDGELALPFTEPTPIPANELLRPFAPLMMVLYRHRDAKEIGLEHHHHHH | not soluble |
| MHHHHHHSSGRENLYFQGSTKGDINQYYTLENTIGRGSWGEVKIAVQKGTRIRRAAKKIPKYFVEDVDRFKQEIEIMKSLDHPNIIRLYETFEDNTDIYLVMELCTGGELFERVVHKRVFRESDAARIMKDVLSAVAYCHKLNVAHRDLKPENFLFLTDSPDSPLKLIDFGLAARFKPGKMMRTKVGTPYYVSPQVLEGLYGPECDEWSAGVMMYVLLCGYPPFSAPTDSEVMLKIREGTFTFPEKDWLNVSPQAESLIRRLLTKSPKQRITSLQALEHEWFEKQLSSSPRNLL | soluble |
| MAHELQLIKQSSGILIPATPETSEILQSKIKLGAVLVAEFRQVRNPAFHRRFFALLNLGFEYWEPTGGAISANERKLVNGYAKFLAAYGGNESALLDAAEQYLEQIANRRVTNGISLCKSFDAYRAWVTVEAGHYDAIQLPDGTLRKHPRSIAFSSMDEVEFQQLYKSALDVLWRWILSRTFRTQREAENAAAQLMSWAG | not soluble |
| MKESNSRREFLSQSGKMVTAAALFGTSVPLAHAAVAGTLNCEANNTMKITDPHYYLDNVLLETGFDYENGVAVQTRTARQTVEIQDGKIVALRENKLHPDATLPHYDAGGKLMLPTTRDMHIHLDKTFYGGPWRSLNRPAGTTIQDMIKLEQKMLPELQPYTQERAEKLIDLLQSKGTTIARSHCNIEPVSGLKNLQNLQAVLARRQAGFECEIVAFPQHGLLLSKSEPLMREAMQAGAHYVGGLDPTSVDGAMEKSLDTMFQIALDYDKGVDIHLHETTPAGVAAINYMVETVEKTPQLKGKLTISHAFALATLNEQQVDELANRMVVQQISIASTVPIGTLHMPLKQLHDKGVKVMTGTDSVIDHWSPYGLGDMLEKANLYAQLYIRPNEQNLSRSLFLATGDVLPLNEKGERVWPKAQDDASFVLVDASCSAEAVARISPRTATFHKGQLVWGSVAG | soluble |
| MGSDKIHHHHHHMPVQQLFYKTAVPVSAKRHGDLSISSGKTYAFARHTNSIPLTALEFGPAAGTHPIVFAGTGEDVVPAIIVGTREDENLAVDADGNWQGTYIPAFARRYPFIFSLDKDKNQFTLLVDEEFEGANRDGRGERLFDSEGEQTGYLKSVLKFLQDYQAGFARTQAFCKRLKELDLLVPMQAEFSLGAGQKRTLGGFQVVDREKLKALSGEVLADLCRKDELECIYLHLSSMRHFRQMLERANTEASEAEPETDAADVAEPMAET | not soluble |
| MEDRNNIYFFYKHTKSMQEAVEPLKQLATSQGLNVVDDVQKANIIVSVGGNNAFLQATRKTNFRSDCLYVGVSTDREGFYPDFTINEIDKMFEAFENQNIEVKRLSTLEVTIDDEKPFYCLNECSIRSNVIKTFVLEVFIDDMHFETFRGDGMIVSTPTGSTAYNKSVRGAVVDPRLPSLQVSEIASLNNNTYRTLGTSFLLSGDRTLRLKVVQDGNDFPIIGADNEALSIRHAEDIKIRLSDKQVKVLKLKDNTFWHKVQRNFLLEHHHHHH | soluble |
| MPEMPEDMEQEEVNIPNRRVLVTGATGLLGRAVHKEFQQNNWHAVGCGFRRARPKFEQVNLLDSNAVHHIIHDFQPHVIVHCAAERRPDVVENQPDAASQLNVDASGNLAKEAAAVGAFLIYISSDYVFDGTNPPYREEDIPAPLNLYGKTKLDGEKAVLENNLGAAVLRIPILYGEVEKLEESAVTVMFDKVQFSNKSANMDHWQQRFPTHVKDVATVCRQLAEKRMLDPSIKGTFHWSGNEQMTKYEMACAIADAFNLPSSHLRPITDSPVLGAQRPRNTQLDCSKLETLGIGQRTPFRIGIKESLWPFLIDKRWRQTVFH | not soluble |
